Test results as given in patent US20210292396A1 (INTERNATIONAL AIDS VACCINE INITIATIVE, published 2021).
Substitutions are numbered along the chain they refer to.

B1: PGT-121 (antibody, V domains shown)
VH: QMQLQESGPGLVKPSETLSLTCSVSGASISDSYWSWIRRSPGKGLEWIGYVHKSGDTNYSPSLKSRVNLSLDTSKNQVSLSLVAATAADSGKYYCARTLHGRRIYGIVAFNEWFTYFYMDVWGNGTQVTVSS
VL: SDISVAPGETARISCGEKSLGSRAVQWYQHRAGQAPSLIIYNNQDRPSGIPERFSGSPDSPFGTTATLTITSVEAGDEADYYCHIWDSRVPTKWVFGGGTTLTVLG
B2: ePGT121.15.H1.L1 (antibody, V domains shown)
VH: QMQLQESGPGLVKPGETLSLTCSVSGASISSSYWSWLRETPGKGLEWIGYTHHSGDTNYAPSLKSRVHLGLHPSKNQVSLSLTSVTAADTAVYYCARTLHGRRIYGVVAFNEWFTYFYWEVWGNGTQVTVSS
VL: SDISVAPGETVRISCGGESIGSRAVQWYQHRAGQAPKLIIYNNQDRPPGIPERFSGSPDIDFGTTATLTITNVEAGDEATYYCHIWDSRRPTNWVFGGGTTLTVL
B3: ePGT121.15.H6.L1 (antibody, V domains shown)
VH: B2 VH with W113F, N124K
VL: B2 VL

Legend:
[1] = target: gp120 (isolate not stated; FIG. 19) (HIV)
[2] = target: HIV Env of isolate Ce704809221_1B3 (HIV); assay: cell-based or functional assay
HIV Env of isolate CNE19 = HIV Env of isolate CNE19 (HIV); assay: cell-based or functional assay
[3] = target: HIV Env of isolate 231965.c01 (HIV); assay: cell-based or functional assay
[4] = target: HIV Env of isolate X1193_c1 (HIV); assay: cell-based or functional assay
HIV Env of isolate CNE5 = HIV Env of isolate CNE5 (HIV); assay: cell-based or functional assay

Row | Binder | EC50 (read off the curve) [1] [µg/mL] | neutralization IC50 [2] [µg/mL] | neutralization IC50 (HIV Env of isolate CNE19) [µg/mL] | neutralization (Table 6 value) [3] | neutralization IC50 [4] [µg/mL] | neutralization (Table 6 value) (HIV Env of isolate CNE5)
1 | B1 | ~0.6 | 0.025 | 0.008 |  |  | 
2 | B2 |  |  |  | 0.68 | 0.0001 | 
3 | B3 |  |  |  | 1.27 |  | 2.72
